The values below come from patent US20070026428A1.

Test in all cases: cell-based or functional assay
The target in assay [1] is ced-3(p15)::nz, CED-3 small subunit p15 with the NZ anti-parallel leucine zipper at its C-terminus (C. elegans) (UniProt P42573).
The target in assay [2] is cz::ced-3(p15), CED-3 small subunit with the CZ leucine zipper at its N-terminus (opposite orientation) (C. elegans) (UniProt P42573).
The target in assay [3] is Caspase-3(p12)::nz, human Caspase-3 small subunit p12 with the NZ anti-parallel leucine zipper at its C-terminus (human) (UniProt P42574).

For the molecule “cz::ced-3(p17), CED-3 large subunit p17 with the CZ anti-parallel leucine zipper at its N-terminus (from UniProt P42573 222-374)”, in assay [1], the % GFP positive cells in L1 larvae, ced-3(n717) background stood at 5.9%; the % GFP positive cells in L1 larvae, ced-8(n1891) background is 21.9%; the % GFP positive cells in adults, ced-3(n717) background stood at 5.1%; the % GFP positive cells in adults, ced-8(n1891) background came to 4.5%. Further, in assay [1], the % GFP positive cells in adults, recCED-3(uIs37) was 5.4%; the death of touch sensory neurons monitored by the loss of GFP fluorescence, extrachromosomal arrays is > 60%; the death of touch sensory neurons, integrated lines was > 95%.
The molecule “ced-3(p17)::nz, CED-3 large subunit with the NZ leucine zipper at its C-terminus (opposite orientation) (from UniProt P42573 222-374)” returned a % GFP positive touch cells (surviving cells), zippers in the opposite orientation in assay [2] of 96%.

B1: cz::Caspase-3(p17), human Caspase-3 large subunit p17 with the CZ anti-parallel leucine zipper at its N-terminus (protein, part only; not given: Exact insert limits, part only)
chain, part: GGSGMENTENSVDSKSIKNLEPKIIHGSESMDSGISLDNSYKMDYPEMGLCIIINNKNFHKSTGMTSRSGTDVDAANLRETFRNLKYEVRNKNDLTREEIVELMRDVSKEDHSKRSSFVCVLLSHGEEGIIFGTNGPVDLKKITNFFRGDRCRSLTGKPKLFIIQACRGTELDCGIETD
For B1, in assay [3], the % GFP positive cells in adults, ced-3(n717) background came out at 1%; the % GFP positive cells in adults, recCaspase-3(uIs40) was 0.9%; the % of YFP positive HeLa cells with nuclear YFP (caspase-sensing EYFP vector) after doxycycline induction was in the range of 30 to 40%; the animals completely or partially paralyzed within three hours after induction of heat shock, hsp-16 and myo-3 promoters was > 50%. In assay [3], the animals completely paralyzed within 12 hours after heat shock, hsp-16 and myo-3 promoters was 100%; the apoptotic death of touch sensory neurons in C. elegans, extrachromosomal arrays was found to be 80%; the death of touch receptor neurons in C. elegans, integrated DNA was 100%; the killing of embryonically derived ALM and PLM touch neurons after heat shock in the embryo, hsp-16 and mec-18 promoters was > 90%. Further, the paralysis of animals (death of body wall muscle cells) after heat shock, hsp-16 and myo-3 promoters in assay [3] was > 90%.
